The values that follow come from the supplement of paper PMC12764529.

± gives the half width of the 95% confidence interval.

The nature of data set [1]: folding stability dG unfold from trypsin proteolysis; higher = more stable. The method in brief: (§1)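 Designed mini-proteins (under 80 residues, no cysteine) in a PA-tagged cDNA display construct were digested with trypsin and chymotrypsin. Each protease was used at 11 concentrations (threefold dilutions) plus a no-protease condition, followed by sequencing. K50 was inferred by Bayesian fitting of sequencing counts, and unfolding free energy was derived against a sequence-predicted unfolded-state K50 and a shared folded-state K50, per protease or combined. Only designs with AlphaFold2 dimer inter-PAE above 15 were kept.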

Data set [2] in a line: folding stability dG unfold from chymotrypsin proteolysis; higher = more stable. The method in brief:
as §1

Data set [3] is described as follows: folding stability dG unfold (combined trypsin and chymotrypsin); higher = more stable. The method in brief:
as §1

Consider “SAGGSAGGSMTLKVTLPNGKVIELPLPEELENIPAETIAKLLGEENVRLELYSPDGVPYDFGASAGGSAGGS [r12_411_TrMRF]”, for which the “folding stability dG unfold” value in data set [1] came out at 1.18 ± 0.029 kcal/mol; in data set [2], 0.726 ± 0.09 kcal/mol; in data set [3] it was 1.03 ± 0.099 kcal/mol.
In the same order, the values of “SAGGSAGGSMTLVLEVDSVEDALAAVEALLPPGYRVTIEVEERGGRLLVTITIEPAPAPPPEESAGGSAGGS [r12_195_TrROS_Hall]” are 1.92 ± 0.083 kcal/mol, 3.51 ± 0.075 kcal/mol and 3.16 ± 0.071 kcal/mol.
Taken in the same sequence, the figures for “SAGGSAGGSMTRTITLSKEELKKKYPNATLEEIAKDIIEKEPGVKEVTVEEFPGTVKITVTKLSAGGSAGGS [r12_590_JUSTAS]” were 2 ± 0.086 kcal/mol, 2.84 ± 0.058 kcal/mol and 2.57 ± 0.18 kcal/mol.
Regarding “SAGGSAGGSMTVERNVTSEEEAEEWREEIEKELGVKVEEVIREETEEGDLRVKFVIEIPEDLKSAGGSAGGS [r12_577_JUSTAS]”, the “folding stability dG unfold” value in data set [1] was 0.37 ± 0.069 kcal/mol; in data set [2] it was -0.367 ± 0.2 kcal/mol; in data set [3], 0.0537 ± 0.18 kcal/mol.
Taken in the same sequence, the figures for “SAGGSAGGSMTVETTPLATSRDPESDNTVTLTRTTVTFPDGTVRTETWTVTTAPDGTTTTTVSSAGGSAGGS [r12_250_JUSTAS]” were 0.00376 ± 0.037 kcal/mol, 1.35 ± 0.033 kcal/mol and 0.999 ± 0.049 kcal/mol.
Taken in the same sequence, the figures for “SAGGSAGGSMTVTVRRVYFPPNLAEGMTVEELRKKLGVPDLPVLVVDVEVTLTPEELEALLKESAGGSAGGS [r12_178_TrMRF]” were 1.39 ± 0.041 kcal/mol, 2.21 ± 0.036 kcal/mol and 1.97 ± 0.05 kcal/mol.
For “SAGGSAGGSMVEITFPPDLSEEEAEALAKELEEKYNKKVKITKVPPEIPVPLPQYDPTNWVEVSAGGSAGGS [r12_159_JUSTAS]”, the “folding stability dG unfold” value is -0.0502 ± 0.06 kcal/mol in data set [1], -0.0306 ± 0.11 kcal/mol in data set [2] and -0.108 ± 0.2 kcal/mol in data set [3].
Taken in the same sequence, the figures for “SAGGSAGGSMVFESTSVYTFPEQNTVVVTKTTTTVTKTPDGSSSVSTSTTTTVLTVPPPEPLVSAGGSAGGS [r12_277_JUSTAS]” were 2.64 ± 0.12 kcal/mol, 3.64 ± 0.13 kcal/mol and 2.85 ± 0.3 kcal/mol.
In the same order, the values of “SAGGSAGGSMVKTFPESEPGERVTRELILTPDSIEIVETVVKTDPATGKPVEEVLLRRSTLPLSAGGSAGGS [r12_70_JUSTAS]” are -0.747 ± 0.4 kcal/mol, -0.315 ± 0.41 kcal/mol and -0.353 ± 0.29 kcal/mol.
In the same order, the values of “SAGGSAGGSMVKVEVTTTYDPSSNKTTVTTTTTLTEGGGTVLGTKTTTTTTTISPTTPVTSVTSAGGSAGGS [r12_254_JUSTAS]” are 0.604 ± 0.031 kcal/mol, 1.17 ± 0.015 kcal/mol and 0.955 ± 0.042 kcal/mol.
As for “SAGGSAGGSMVYKVTVYIPESGETREFVDPGSEEEIKARVKELFPDPNVKVEITPIEASPELLSAGGSAGGS [r12_92_JUSTAS]”, the “folding stability dG unfold” value in data set [1] was determined as 2.11 ± 0.042 kcal/mol; in data set [2] it was 1.51 ± 0.051 kcal/mol; in data set [3] it was 1.82 ± 0.045 kcal/mol.
On to “SAGGSAGGSMWIVRIEYENPDNGKTYTIPIFVPPEDAEEIAKEIAEQLPGIKDIKVEIYPLNDSAGGSAGGS [r12_757_TrROS]”, for which the “folding stability dG unfold” value came out at 1.52 ± 0.064 kcal/mol in data set [1], 2.22 ± 0.079 kcal/mol in data set [2] and 2.03 ± 0.16 kcal/mol in data set [3].
In the same order, the values of “SAGGSAGGSNKKKKTIMFTIKLDVPEGTPTAEEIADELKELSPNVEIDNIMFTPNEVYIMIKVSAGGSAGGS [r12_454_TrROS]” are 1.16 ± 0.077 kcal/mol, 1.84 ± 0.062 kcal/mol and 1.61 ± 0.18 kcal/mol.
Regarding “SAGGSAGGSNKPVYFRAKIRNPDGKPIGEIEIPAKFDSLEDARSFAENLAKDLPGYKVEIELVSAGGSAGGS [r20_201_TrROS]”, the figures for the “folding stability dG unfold” value in data set [1], in data set [2] and in data set [3] were 2.061 ± 0.012 kcal/mol, 1.38 ± 0.084 kcal/mol and 1.77 ± 0.081 kcal/mol, respectively.
Taken in the same sequence, the figures for “SAGGSAGGSNLEEFLAKLPPDVEVVVDPETGTVLVRFPKTGTVAVFRVDAAEGKVELVEVKPVSAGGSAGGS [r12_82_TrMRF]” were 3.88 ± 0.11 kcal/mol, 3.72 ± 0.049 kcal/mol and 3.77 ± 0.073 kcal/mol.
In the same order, the values of “SAGGSAGGSNTITVFMKVDDPEDALDEISEEIRDLFPPGIEVEIQPEQNEDKRGWVQVTIEFKSAGGSAGGS [r20_122_TrROS]” are 1.04 ± 0.063 kcal/mol, 1.15 ± 0.33 kcal/mol and 1.02 ± 0.2 kcal/mol.
Taken in the same sequence, the figures for “SAGGSAGGSPDEGDPVKITILIMIMIPNENGEPYFIFIRVEITIDPKDNKIQITKIDEIYIFPSAGGSAGGS [r12_358_TrROS]” were 3.74 ± 0.16 kcal/mol, 4.66 ± 0.1 kcal/mol and 4.42 ± 0.12 kcal/mol.
Turning to “SAGGSAGGSPDLPELNIEPVSTLPDGSKIYRADVSPEAIARLKAANPAVTVEEHPDFLLLFLRESAGGSAGG [r6_395_JUSTAS]”, the “folding stability dG unfold” value in data set [1] came out at 0.475 ± 0.059 kcal/mol; in data set [2], 0.666 ± 0.058 kcal/mol; in data set [3], 0.565 ± 0.04 kcal/mol.
Taken in the same sequence, the figures for “SAGGSAGGSPESVTFPVGDYLVTVTRNPEDGSLTVTVYDPKTGKPIVLPPEVLAENPDLAENLSAGGSAGGS [r12_817_TrMRF]” were 3.14 ± 0.11 kcal/mol, 2.35 ± 0.058 kcal/mol and 2.68 ± 0.056 kcal/mol.
In the same order, the values of “SAGGSAGGSPGKPYVEVEFTFIAFFPDGWLWVMTMKIEIPPDNNEIKPDIEMERIPLPPGQFLSAGGSAGGS [r12_811_TrROS]” are 2.43 ± 0.05 kcal/mol, 2.73 ± 0.066 kcal/mol and 2.7 ± 0.08 kcal/mol.
Taken in the same sequence, the figures for “SAGGSAGGSPGMKPVEIPFRNPDGKNWKITSIYVMPDGPAMITIEDPNNGKERQIPAEDIDEFSAGGSAGGS [r12_488_TrROS]” were -0.911 ± 0.58 kcal/mol, 0.227 ± 0.32 kcal/mol and -0.136 ± 0.21 kcal/mol.
Take “SAGGSAGGSPGPGTEVEVRYRHPATGRWYPGVAVFTPDGSIRVYFPALGTTVTVPPHTVEPVPSAGGSAGGS [r12_726_TrMRF]”: the results for the “folding stability dG unfold” value in data set [1], in data set [2] and in data set [3] were 1.98 ± 0.056 kcal/mol, 1.93 ± 0.031 kcal/mol and 1.93 ± 0.053 kcal/mol, respectively.
Taken in the same sequence, the figures for “SAGGSAGGSPGTLIEVRFPDRIVRIYQLPPGVYRVEVYEPPYLVATIELPNVTAEEAARLALGSAGGSAGGS [r20_8_TrMRF]” were 1.61 ± 0.034 kcal/mol, 3.071 ± 0.021 kcal/mol and 2.72 ± 0.054 kcal/mol.
In the same order, the values of “SAGGSAGGSPIKIEFPPGIKEIEPIENDPNKTIMFRFPDYLVRIRINPKNGKIDIEIVPPGDMSAGGSAGGS [r12_858_TrROS]” are 1.94 ± 0.028 kcal/mol, 1.9 ± 0.027 kcal/mol and 1.82 ± 0.11 kcal/mol.
Turning to “SAGGSAGGSPKWKTIEITVLVPGMPAEEIAKNIANNFGIEITDIDVQLFPNGWVVVSATIRVKSAGGSAGGS [r12_359_TrROS]”, the “folding stability dG unfold” value in data set [1] came out at 2.59 ± 0.087 kcal/mol; in data set [2] it was 3.16 ± 0.051 kcal/mol; in data set [3], 2.99 ± 0.096 kcal/mol.
Taken in the same sequence, the figures for “SAGGSAGGSPLVKTTTSVDPVGPDRTLTTSTATLPSGGTTVTTTTFLTSPDGTVPVATTTTPSASAGGSAGG [r6_471_JUSTAS]” were -0.461 ± 0.15 kcal/mol, 0.24 ± 0.14 kcal/mol and -0.11 ± 0.21 kcal/mol.
Taken in the same sequence, the figures for “SAGGSAGGSPMKIEAVELEDGTVAYRLEDGTVLLVTKNEDGTYTVKVFKNGKLVEEKEIKLPPSAGGSAGGS [r12_451_TrROS_Hall]” were 2.28 ± 0.069 kcal/mol, 3.277 ± 0.03 kcal/mol and 2.99 ± 0.071 kcal/mol.
Taken in the same sequence, the figures for “SAGGSAGGSPNPKVVPFTFPVVIPDEDGHPYLVNVTVTAIPDTDTYYARITYPDGRVEDFVLASAGGSAGGS [r12_286_TrMRF]” were 1.94 ± 0.049 kcal/mol, 2.494 ± 0.015 kcal/mol and 2.33 ± 0.04 kcal/mol.
In the case of “SAGGSAGGSPPGWTIMMFEITISITVPRVEVYDPKDGKPRAEVPYVRVSIPIPIFIIFPAGAFSAGGSAGGS [r12_600_TrROS]”, the “folding stability dG unfold” value in data set [1] was found to be 2.93 ± 0.17 kcal/mol; in data set [2] it was 4.24 ± 0.12 kcal/mol; in data set [3] it was 3.77 ± 0.11 kcal/mol.
In the same order, the values of “SAGGSAGGSPPNWKTIPITFWVDPGDVEEFANILRDLGLEIEDVEVEPNPDGHVWVTITIVIPSAGGSAGGS [r12_905_TrROS]” are 2.57 ± 0.17 kcal/mol, 3.54 ± 0.1 kcal/mol and 3.33 ± 0.18 kcal/mol.
In the same order, the values of “SAGGSAGGSPRIVRVEVDPPPGGLGLARIEVEVVDPSTGVPRLERRTVPVPLGDWKKLLDFLGSAGGSAGGS [r12_691_TrMRF]” are 2.06 ± 0.051 kcal/mol, 2.25 ± 0.054 kcal/mol and 2.23 ± 0.15 kcal/mol.
As to “SAGGSAGGSPVKDPDGKEVVPIQMTFIIRDPEMGKPVLITITFYIDPAPGGKIKDISIDIFPLSAGGSAGGS [r12_0_TrROS]”, the “folding stability dG unfold” value amounted to 3.51 ± 0.27 kcal/mol in data set [1], 4.29 ± 0.17 kcal/mol in data set [2] and 4.04 ± 0.17 kcal/mol in data set [3].
Regarding “SAGGSAGGSPVLVRVYARDEDGNETPVAEIALPVENDNPEEAAKKAREIAKKLGVKEYRVEIESAGGSAGGS [r12_569_TrMRF]”, the “folding stability dG unfold” value in data set [1] is 1.37 ± 0.031 kcal/mol; in data set [2], 1.56 ± 0.046 kcal/mol; in data set [3] it was 1.48 ± 0.04 kcal/mol.
In the same order, the values of “SAGGSAGGSPVVVIEVPAEDLSPEDIKALLAAAPDENAVIVITNPDGEKRTLVFTPDGRIEPLSAGGSAGGS [r12_1054_TrROS_Hall]” are 0.681 ± 0.024 kcal/mol, 0.451 ± 0.1 kcal/mol and 0.593 ± 0.042 kcal/mol.
Taken in the same sequence, the figures for “SAGGSAGGSPWKKVKFKFMFPFPNYYVRISIEIWVNPGDNEIMIEMSIEIFPIPPGDNKAFKDSAGGSAGGS [r12_885_TrROS]” were 2.79 ± 0.24 kcal/mol, 3.9 ± 0.11 kcal/mol and 3.31 ± 0.36 kcal/mol.
In the same order, the values of “SAGGSAGGSPYKEVPVPVRIHSPDGETHEFPGTIWKSPDDGMLEIRFPGNGKKHKIPLNDIQISAGGSAGGS [r12_772_TrROS]” are -1.5 ± 0.59 kcal/mol, -0.606 ± 0.19 kcal/mol and -0.699 ± 0.22 kcal/mol.
